Assays:
[1] = biological target: cynomolgus monkey c-Met protein (purchased from AcroBiosystems) (cynomolgus monkey, UniProt A0A2K5UM36 25-932); experiment: BLI (ForteBio), antibody on AHQ sensor, cynomolgus monkey c-Met protein in solution
[2] = biological target: T1, human c-Met protein (purchased from AcroBiosystems) (human, UniProt P08581 25-932); experiment: BLI (ForteBio), antibody on AHQ sensor, 100 nM human c-Met antigen, 1:1 model
T1 construct: Soluble antigen of the ForteBio assay; also called human c-Met antigen

[3] = biological target: T2, rhesus c-Met on HEK293T cells overexpressing rhesus c-Met (HEK293-Rhe c-Met) (rhesus monkey, UniProt F7H1K4 25-1381); experiment: flow cytometry on HEK293-Rhe c-Met cells, first EC50 column
T2 construct: also called rhesus monkey c-Met

[4] = biological target: T3, human c-Met on HEK293T cells overexpressing human c-Met (HEK293-Hu c-Met) (human, UniProt P08581 25-1390); experiment: flow cytometry on HEK293-Hu c-Met cells, first EC50 column
T3 construct: whole, on cells; also called human c-Met overexpression cells

[5] = biological target: T3, human c-Met on HEK293T cells …; experiment: flow cytometry on HEK293-Hu c-Met cells
[6] = biological target: T2, rhesus c-Met on HEK293T cells …; experiment: flow cytometry on HEK293-Rhe c-Met cells

T1 sequence (P08581 25-932 limits assumed): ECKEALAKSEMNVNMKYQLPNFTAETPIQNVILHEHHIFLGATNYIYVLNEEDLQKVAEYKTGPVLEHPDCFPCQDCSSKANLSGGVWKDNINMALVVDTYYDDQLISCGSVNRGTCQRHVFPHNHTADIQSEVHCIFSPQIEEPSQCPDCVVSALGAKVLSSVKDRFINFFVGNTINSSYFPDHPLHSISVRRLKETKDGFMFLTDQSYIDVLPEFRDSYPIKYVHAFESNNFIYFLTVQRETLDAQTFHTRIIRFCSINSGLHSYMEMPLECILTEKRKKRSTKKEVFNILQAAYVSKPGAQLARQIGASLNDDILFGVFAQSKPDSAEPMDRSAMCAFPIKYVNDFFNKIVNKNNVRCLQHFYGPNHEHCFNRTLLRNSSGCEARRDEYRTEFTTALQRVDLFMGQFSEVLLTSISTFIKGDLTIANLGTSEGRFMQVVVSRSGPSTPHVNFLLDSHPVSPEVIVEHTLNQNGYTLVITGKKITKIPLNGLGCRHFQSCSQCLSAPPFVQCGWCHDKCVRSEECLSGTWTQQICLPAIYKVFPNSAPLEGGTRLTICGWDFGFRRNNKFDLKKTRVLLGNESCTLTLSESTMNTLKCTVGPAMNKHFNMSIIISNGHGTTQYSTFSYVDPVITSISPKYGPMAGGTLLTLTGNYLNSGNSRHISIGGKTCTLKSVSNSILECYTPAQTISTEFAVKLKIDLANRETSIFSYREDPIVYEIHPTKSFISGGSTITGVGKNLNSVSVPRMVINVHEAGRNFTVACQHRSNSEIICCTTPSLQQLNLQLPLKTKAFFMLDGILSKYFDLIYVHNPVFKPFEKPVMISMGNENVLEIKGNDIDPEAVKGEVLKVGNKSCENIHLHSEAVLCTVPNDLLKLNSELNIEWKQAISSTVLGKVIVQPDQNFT
T2 sequence (F7H1K4 entry or part of it limits assumed, form in doubt): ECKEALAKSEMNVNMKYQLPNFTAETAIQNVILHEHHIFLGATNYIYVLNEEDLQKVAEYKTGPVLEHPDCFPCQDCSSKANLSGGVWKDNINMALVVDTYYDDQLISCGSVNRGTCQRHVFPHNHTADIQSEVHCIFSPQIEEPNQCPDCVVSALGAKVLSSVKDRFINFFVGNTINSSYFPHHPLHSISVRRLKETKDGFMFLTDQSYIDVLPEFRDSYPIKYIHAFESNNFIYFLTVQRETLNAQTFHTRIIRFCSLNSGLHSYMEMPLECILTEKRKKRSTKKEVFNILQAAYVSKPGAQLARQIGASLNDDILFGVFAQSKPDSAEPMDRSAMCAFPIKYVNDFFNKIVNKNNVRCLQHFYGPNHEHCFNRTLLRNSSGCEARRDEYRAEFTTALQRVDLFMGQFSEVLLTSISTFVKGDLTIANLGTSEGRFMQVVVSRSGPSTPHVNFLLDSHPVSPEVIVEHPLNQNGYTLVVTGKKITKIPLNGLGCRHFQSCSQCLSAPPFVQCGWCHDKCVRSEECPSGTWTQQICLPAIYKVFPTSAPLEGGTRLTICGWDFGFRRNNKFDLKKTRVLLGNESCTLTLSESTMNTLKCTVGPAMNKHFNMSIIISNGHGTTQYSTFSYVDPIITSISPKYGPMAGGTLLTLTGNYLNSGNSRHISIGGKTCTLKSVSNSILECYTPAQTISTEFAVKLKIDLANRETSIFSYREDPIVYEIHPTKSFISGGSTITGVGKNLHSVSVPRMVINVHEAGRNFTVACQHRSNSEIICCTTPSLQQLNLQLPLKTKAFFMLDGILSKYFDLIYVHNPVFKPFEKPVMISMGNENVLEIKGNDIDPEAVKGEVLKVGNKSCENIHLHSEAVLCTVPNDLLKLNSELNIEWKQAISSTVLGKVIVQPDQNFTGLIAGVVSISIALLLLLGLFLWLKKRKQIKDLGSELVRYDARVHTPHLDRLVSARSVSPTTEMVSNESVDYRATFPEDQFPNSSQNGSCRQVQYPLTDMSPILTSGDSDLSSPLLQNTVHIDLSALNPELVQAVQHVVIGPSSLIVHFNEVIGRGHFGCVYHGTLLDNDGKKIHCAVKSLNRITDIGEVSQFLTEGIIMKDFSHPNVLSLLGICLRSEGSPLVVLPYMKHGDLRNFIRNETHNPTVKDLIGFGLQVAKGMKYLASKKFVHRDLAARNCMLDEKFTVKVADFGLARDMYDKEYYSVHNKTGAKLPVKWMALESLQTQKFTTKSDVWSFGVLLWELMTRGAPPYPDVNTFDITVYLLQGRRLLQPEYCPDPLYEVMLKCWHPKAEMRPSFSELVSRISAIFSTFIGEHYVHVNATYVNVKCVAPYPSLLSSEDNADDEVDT
Chain of cynomolgus monkey c-Met protein (purchased from AcroBiosystems) (A0A2K5UM36 entry or part of it limits assumed, form in doubt): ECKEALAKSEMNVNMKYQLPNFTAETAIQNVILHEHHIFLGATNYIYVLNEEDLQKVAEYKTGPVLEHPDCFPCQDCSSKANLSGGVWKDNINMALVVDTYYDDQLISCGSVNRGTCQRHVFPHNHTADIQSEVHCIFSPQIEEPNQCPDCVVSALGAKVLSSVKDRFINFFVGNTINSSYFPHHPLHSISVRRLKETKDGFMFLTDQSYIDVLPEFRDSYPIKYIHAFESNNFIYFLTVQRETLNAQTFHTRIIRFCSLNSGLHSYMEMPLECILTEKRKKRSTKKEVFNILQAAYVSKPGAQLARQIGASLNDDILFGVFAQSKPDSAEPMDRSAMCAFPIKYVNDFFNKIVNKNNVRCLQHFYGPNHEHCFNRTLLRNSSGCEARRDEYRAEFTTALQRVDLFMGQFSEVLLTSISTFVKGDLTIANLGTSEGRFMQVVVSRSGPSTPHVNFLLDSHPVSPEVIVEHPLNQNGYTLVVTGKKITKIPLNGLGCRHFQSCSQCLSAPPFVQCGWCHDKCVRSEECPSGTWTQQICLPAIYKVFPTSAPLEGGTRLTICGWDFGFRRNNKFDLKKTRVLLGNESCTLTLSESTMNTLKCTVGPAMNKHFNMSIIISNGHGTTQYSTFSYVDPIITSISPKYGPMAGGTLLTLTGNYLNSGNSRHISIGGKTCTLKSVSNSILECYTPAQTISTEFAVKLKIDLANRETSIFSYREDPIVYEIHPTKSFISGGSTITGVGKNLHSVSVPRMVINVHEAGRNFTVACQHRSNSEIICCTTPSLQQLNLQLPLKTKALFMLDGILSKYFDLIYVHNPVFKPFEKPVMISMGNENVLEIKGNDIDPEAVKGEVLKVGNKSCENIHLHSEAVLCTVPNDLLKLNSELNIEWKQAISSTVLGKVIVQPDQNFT
T3 sequence (P08581 25-1390): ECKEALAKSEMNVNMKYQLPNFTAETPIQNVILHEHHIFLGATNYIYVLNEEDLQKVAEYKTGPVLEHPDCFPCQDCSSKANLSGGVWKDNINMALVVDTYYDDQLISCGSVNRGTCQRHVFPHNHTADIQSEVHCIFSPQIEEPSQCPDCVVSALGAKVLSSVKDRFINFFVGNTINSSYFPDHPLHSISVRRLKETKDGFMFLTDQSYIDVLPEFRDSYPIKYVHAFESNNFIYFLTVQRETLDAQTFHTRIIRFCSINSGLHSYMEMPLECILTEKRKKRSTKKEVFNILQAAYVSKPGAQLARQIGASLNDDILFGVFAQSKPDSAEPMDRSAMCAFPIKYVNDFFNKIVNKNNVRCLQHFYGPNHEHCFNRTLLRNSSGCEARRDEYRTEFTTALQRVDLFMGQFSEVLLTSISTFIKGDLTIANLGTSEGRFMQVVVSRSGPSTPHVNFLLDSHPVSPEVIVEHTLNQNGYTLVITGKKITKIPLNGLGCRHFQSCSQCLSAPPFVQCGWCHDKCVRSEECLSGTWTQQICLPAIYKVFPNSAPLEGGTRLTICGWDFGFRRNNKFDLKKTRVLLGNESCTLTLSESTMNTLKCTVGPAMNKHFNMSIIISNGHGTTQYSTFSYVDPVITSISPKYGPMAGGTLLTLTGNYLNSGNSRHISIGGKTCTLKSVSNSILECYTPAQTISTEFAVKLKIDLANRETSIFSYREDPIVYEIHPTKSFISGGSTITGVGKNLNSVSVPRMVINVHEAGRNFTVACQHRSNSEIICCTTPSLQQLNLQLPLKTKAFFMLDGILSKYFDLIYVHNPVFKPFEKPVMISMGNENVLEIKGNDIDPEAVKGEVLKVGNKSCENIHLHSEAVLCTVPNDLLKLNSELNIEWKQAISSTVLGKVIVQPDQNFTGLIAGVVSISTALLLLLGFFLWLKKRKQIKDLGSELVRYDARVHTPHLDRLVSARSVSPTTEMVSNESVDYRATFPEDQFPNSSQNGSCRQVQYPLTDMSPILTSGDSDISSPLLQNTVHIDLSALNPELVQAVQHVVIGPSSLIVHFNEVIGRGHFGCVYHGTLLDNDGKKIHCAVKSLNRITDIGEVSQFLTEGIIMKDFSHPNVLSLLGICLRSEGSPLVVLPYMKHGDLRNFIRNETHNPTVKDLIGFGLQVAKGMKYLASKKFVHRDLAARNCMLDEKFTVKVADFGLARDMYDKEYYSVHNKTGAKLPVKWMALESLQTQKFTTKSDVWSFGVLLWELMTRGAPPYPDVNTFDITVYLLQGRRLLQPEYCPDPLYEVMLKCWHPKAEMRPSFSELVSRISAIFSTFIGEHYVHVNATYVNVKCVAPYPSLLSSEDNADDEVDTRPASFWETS

Row | Binder | Kd [1] | koff [1] | kon [1] | Kd [2] | koff [2] | kon [2] | EC50 [3] | EC50 [4] | EC50 [5] | EC50 [6]
1 | anti-c-Met single-arm antibody 22 (antibody, human IgG1, kappa, L234A L235A) heavy: not shown light: DIVMTQSPSSVSASVGDRVTITCRASQGISSWLAWYQQKPGKAPKLLIYAASSLQSGVPSKFSGSGSGTEFTLTISSLQPEDFATYFCQQAYGFPLTFGGGTKVEIKRTVAAPSVFIFPPSDEQLKSGTASVVCLLNNFYPREAKVQWKVDNALQSGNSQESVTEQDSKDSTYSLSSTLTLSKADYEKHKVYACEVTHQGLSSPVTKSFNRGEC not shown | 19 nM | 0.00259 s⁻¹ | 136000 M⁻¹ s⁻¹ | 4.29 nM | 0.000548 s⁻¹ | 128000 M⁻¹ s⁻¹ | 0.726 nM | 0.947 nM |  | 
2 | anti-c-Met single-arm antibody 221 (antibody, human IgG1, kappa, L234A L235A) heavy: not shown light: EIVLTQSPGTLSLSPGERATLSCRASQSVSSSYLAWYQQKPGQAPRLLIYGPSSRATGIPDRFSGSGSGTDFTLTISSLQPADFASYYCQQSYITPYTFGQGTKVEIKRTVAAPSVFIFPPSDEQLKSGTASVVCLLNNFYPREAKVQWKVDNALQSGNSQESVTEQDSKDSTYSLSSTLTLSKADYEKHKVYACEVTHQGLSSPVTKSFNRGEC not shown | 63.8 nM | 0.00192 s⁻¹ | 30100 M⁻¹ s⁻¹ | 2.01 nM | 0.00037 s⁻¹ | 184000 M⁻¹ s⁻¹ |  |  | 1.73 nM | 1.48 nM
3 | anti-c-Met single-arm antibody 223 (antibody, human IgG1, kappa, L234A L235A) heavy: not shown light: DIQLTQSPSSLSASVGDRVTITCRASQSIITYLNWYQQKPGKAPKLLIYAASSLQSGVPSRFSGSGSGTDFTLNISSLQPEDFATYYCQQANSLPYTFGQGTKVEIKRTVAAPSVFIFPPSDEQLKSGTASVVCLLNNFYPREAKVQWKVDNALQSGNSQESVTEQDSKDSTYSLSSTLTLSKADYEKHKVYACEVTHQGLSSPVTKSFNRGEC not shown | 16.2 nM | 0.00109 s⁻¹ | 67300 M⁻¹ s⁻¹ | 9.76 nM | 0.00163 s⁻¹ | 167000 M⁻¹ s⁻¹ |  |  | 0.765 nM | 1.06 nM
4 | LY2875358 single-arm antibody (antibody, human IgG1, kappa, L234A L235A, also called control antibody LY2875358) heavy: not shown light: DIQMTQSPSSLSASVGDRVTITCSVSSSVSSIYLHWYQQKPGKAPKLLIYSTSNLASGVPSRFSGSGSGTDFTLTISSLQPEDFATYYCQVYSGYPLTFGGGTKVEIKRTVAAPSVFIFPPSDEQLKSGTASVVCLLNNFYPREAKVQWKVDNALQSGNSQESVTEQDSKDSTYSLSSTLTLSKADYEKHKVYACEVTHQGLSSPVTKSFNRGEC not shown |  |  |  |  |  |  | 0.868 nM | 1.25 nM | 1.39 nM | 0.749 nM
5 | Amivantamab single-arm antibody (antibody, human IgG1, kappa, L234A L235A, also called control antibody Amivantamab) heavy: not shown light: DIQMTQSPSSVSASVGDRVTITCRASQGISNWLAWFQHKPGKAPKLLIYAASSLLSGVPSRFSGSGSGTDFTLTISSLQPEDFATYYCQQANSFPITFGQGTRLEIKRTVAAPSVFIFPPSDEQLKSGTASVVCLLNNFYPREAKVQWKVDNALQSGNSQESVTEQDSKDSTYSLSSTLTLSKADYEKHKVYACEVTHQGLSSPVTKSFNRGEC not shown |  |  |  |  |  |  | 0.241 nM | 0.323 nM | 0.396 nM | 0.2 nM
6 | Onartuzumab (antibody, human IgG1, kappa, L234A L235A, Control antibody, made from three plasmids in Expi-CHO cells; also called control antibody onartuzumab; antibody onartuzumab) heavy: not shown light: DIQMTQSPSSLSASVGDRVTITCKSSQSLLYTSSQKNYLAWYQQKPGKAPKLLIYWASTRESGVPSRFSGSGSGTDFTLTISSLQPEDFATYYCQQYYAYPWTFGQGTKVEIKRTVAAPSVFIFPPSDEQLKSGTASVVCLLNNFYPREAKVQWKVDNALQSGNSQESVTEQDSKDSTYSLSSTLTLSKADYEKHKVYACEVTHQGLSSPVTKSFNRGEC not shown |  |  |  |  |  |  | 0.97 nM | 1.03 nM | 0.54 nM | 1.24 nM
7 | anti-c-Met single-arm antibody 23 (antibody, human IgG1, kappa, L234A L235A) heavy: not shown light: DIVMTQSPSSLSASVGDRVTITCRASQSFSDYLNWYRQKPGKAPKLLLFAASSLQSGVPSRFSGSGSGTDFTLTISSLQPEDFATYYCQQSYSPPYTFGQGTKLEIKRTVAAPSVFIFPPSDEQLKSGTASVVCLLNNFYPREAKVQWKVDNALQSGNSQESVTEQDSKDSTYSLSSTLTLSKADYEKHKVYACEVTHQGLSSPVTKSFNRGEC not shown | 26.5 nM | 0.00151 s⁻¹ | 56900 M⁻¹ s⁻¹ | 0.596 nM | 9.5e-05 s⁻¹ | 160000 M⁻¹ s⁻¹ | 0.746 nM | 0.821 nM |  | 
8 | anti-c-Met single-arm antibody 74 (antibody, human IgG1, kappa, L234A L235A) heavy: not shown light: DIVMTQSPSSVSASVGDRVTITCRASQGINSWLAWYQQKPGKAPNLLIYAASSLQSGVPSRFSGRGSGTDFSLTISSLHPEDFATYYCQQAKGFPLTFGGGTKVEIKRTVAAPSVFIFPPSDEQLKSGTASVVCLLNNFYPREAKVQWKVDNALQSGNSQESVTEQDSKDSTYSLSSTLTLSKADYEKHKVYACEVTHQGLSSPVTKSFNRGEC not shown | 9.7 nM | 0.0026 s⁻¹ | 269000 M⁻¹ s⁻¹ | 6.01 nM | 0.00108 s⁻¹ | 179000 M⁻¹ s⁻¹ | 1.46 nM | 1.9 nM |  | 
9 | anti-c-Met single-arm antibody 136 (antibody, human IgG1, kappa, L234A L235A) heavy: not shown light: DIVMTQSPSSVSASVGDRVTITCRASQGISSWLAWYQQKPGKAPKLLIYAVSSLQSGVPSRFSGSGSGTDFTLTISSLQPEDFATYFCQQANSFPLTFGGGTKVEIKRTVAAPSVFIFPPSDEQLKSGTASVVCLLNNFYPREAKVQWKVDNALQSGNSQESVTEQDSKDSTYSLSSTLTLSKADYEKHKVYACEVTHQGLSSPVTKSFNRGEC not shown | 1.16 nM | 0.000426 s⁻¹ | 369000 M⁻¹ s⁻¹ | 0.0293 nM | 6.71e-06 s⁻¹ | 229000 M⁻¹ s⁻¹ | 0.306 nM | 0.452 nM |  | 
10 | anti-c-Met single-arm antibody 187 (antibody, human IgG1, kappa, L234A L235A) heavy: not shown light: DIVMTQSPSSVSASVGDRVTITCRASQGISSWLAWYQQKPGKAPNLLIYAASNLPSGVPSRFSGSGSGTVFTLTISSLQPEDFATYYCQQSNSFPLTFGGGTKVEIKRTVAAPSVFIFPPSDEQLKSGTASVVCLLNNFYPREAKVQWKVDNALQSGNSQESVTEQDSKDSTYSLSSTLTLSKADYEKHKVYACEVTHQGLSSPVTKSFNRGEC not shown | 2.92 nM | 0.000947 s⁻¹ | 324000 M⁻¹ s⁻¹ | 1.68 nM | 0.000369 s⁻¹ | 220000 M⁻¹ s⁻¹ |  |  | 0.732 nM | 0.592 nM

Source: EP4506361A1 (Biotheus Inc., dated 2025)
